Data from US20220119549A1 (TAVOTEK BIOTHERAPEUTICS HONG KONG, published 2022).

How the values were obtained:
recombinant human TNFα [1] = molecular target: T1, recombinant human TNFα (human, UniProt P01375 77-233); assay: ELISA, recombinant human TNFα coated at 1 µg/mL, HRP anti-human secondary
T1 construct: Bought protein
Description: (§1) In this assay, 1 μg/mL recombinant human TNFα (R&D systems) was coated on an ELISA plate. Increasing concentrations of anti-TNFα shielded antibodies were applied on the plate and their binding to the recombinant human TNFα was detected by HRP-conjugated anti-human secondary antibody.

recombinant human TNFα [2] = molecular target: T1, recombinant human TNFα; assay: cell-based or functional assay
recombinant human TNFα [3] = molecular target: T1, recombinant human TNFα; assay: ELISA, recombinant human TNFα coated at 1 µg/mL, after protease cleavage
Description: as §1

recombinant human TNFα [4] = molecular target: T1, recombinant human TNFα; assay: ELISA on human TNFα, after MMP2 cleavage
Description: as §1

T1 sequence (P01375 77-233 limits assumed): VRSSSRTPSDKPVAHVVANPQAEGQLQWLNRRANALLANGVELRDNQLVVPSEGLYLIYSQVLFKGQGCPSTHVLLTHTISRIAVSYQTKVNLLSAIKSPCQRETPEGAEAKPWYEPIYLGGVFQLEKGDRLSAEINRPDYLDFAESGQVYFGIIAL

| binding result (recombinant human TNFα [3]) | Binder | other results |
| --- | --- | --- |
|  | TAVO194195 (antibody, human IgG1, kappa, also called anti-TNFα shielded antibody with IGF2-based masking domain; EAC194/EAC195) heavy: GIVEECCFRSCDLALLETYCAGGGGSGPLGMLSQGGGGSEVQLVESGGGLVQPGGSLRLSCAASGFDFADYAMHWVRQAPGKGLEWVSAITWNGGHTDYADSVKGRFTISRDNSKNTLYLQMNSLRAEDTAVYYCAKVSYLSTASSLDYWGQGTLVTVSSASTKGPSVFPLAPSSKSTSGGTAALGCLVKDYFPEPVTVSWNSGALTSGVHTFPAVLQSSGLYSLSSVVTVPSSSLGTQTYICNVNHKPSNTKVDKKVEPKSCDKTHTCPPCPAPPAAGPSVFLFPPKPKDTLMISRTPEVTCVVVDVSHEDPEVKFNWYVDGVEVHNAKTKPREEQYNSTYRVVSVLTVLHQDWLNGKEYKCKVSNKALPAPIEKTISKAKGQPREPQVYTLPPSRDELTKNQVSLTCLVKGFYPSDIAVEWESNGQPENNYKTTPPVLDSDGSFLLYSKLTVDKSRWQQGNVFSCSVLHEALHSHYTQKSLSLSPGK light: not shown | fold lower binding affinity than TAVO167127 (recombinant human TNFα [1]): ≥ 5 fold; HEK-Blue TNFα reporter assay: potency in blocking TNFα functional activity, fold lower than TAVO167127 (recombinant human TNFα [2]): ~50 fold |
|  | TAVO198199 (antibody, human IgG1, kappa, also called anti-TNFα shielded antibody with IGF2-based masking domain; EAC198/EAC199) heavy: GIVEECCFRSCDLALLETYCAGGGGSLSGRSDNHGGGGSEVQLVESGGGLVQPGGSLRLSCAASGFDFADYAMHWVRQAPGKGLEWVSAITWNGGHTDYADSVKGRFTISRDNSKNTLYLQMNSLRAEDTAVYYCAKVSYLSTASSLDYWGQGTLVTVSSASTKGPSVFPLAPSSKSTSGGTAALGCLVKDYFPEPVTVSWNSGALTSGVHTFPAVLQSSGLYSLSSVVTVPSSSLGTQTYICNVNHKPSNTKVDKKVEPKSCDKTHTCPPCPAPPAAGPSVFLFPPKPKDTLMISRTPEVTCVVVDVSHEDPEVKFNWYVDGVEVHNAKTKPREEQYNSTYRVVSVLTVLHQDWLNGKEYKCKVSNKALPAPIEKTISKAKGQPREPQVYTLPPSRDELTKNQVSLTCLVKGFYPSDIAVEWESNGQPENNYKTTPPVLDSDGSFLLYSKLTVDKSRWQQGNVFSCSVLHEALHSHYTQKSLSLSPGK light: not shown | fold lower binding affinity than TAVO167127 (recombinant human TNFα [1]): ≥ 5 fold; HEK-Blue TNFα reporter assay: potency in blocking TNFα functional activity, fold lower than TAVO167127 (recombinant human TNFα [2]): ~50 fold |
|  | TAVO196197 (antibody, human IgG1, kappa, Undigested; also called anti-TNFα shielded antibody with IGF2-based masking domain; EAC196/EAC197) heavy: GIVEECCFRSCDLALLETYCAGGGGSRPKPVEVWRKGGGGSEVQLVESGGGLVQPGGSLRLSCAASGFDFADYAMHWVRQAPGKGLEWVSAITWNGGHTDYADSVKGRFTISRDNSKNTLYLQMNSLRAEDTAVYYCAKVSYLSTASSLDYWGQGTLVTVSSASTKGPSVFPLAPSSKSTSGGTAALGCLVKDYFPEPVTVSWNSGALTSGVHTFPAVLQSSGLYSLSSVVTVPSSSLGTQTYICNVNHKPSNTKVDKKVEPKSCDKTHTCPPCPAPPAAGPSVFLFPPKPKDTLMISRTPEVTCVVVDVSHEDPEVKFNWYVDGVEVHNAKTKPREEQYNSTYRVVSVLTVLHQDWLNGKEYKCKVSNKALPAPIEKTISKAKGQPREPQVYTLPPSRDELTKNQVSLTCLVKGFYPSDIAVEWESNGQPENNYKTTPPVLDSDGSFLLYSKLTVDKSRWQQGNVFSCSVLHEALHSHYTQKSLSLSPGK light: not shown | fold lower binding affinity than TAVO167127 (recombinant human TNFα [1]): ≥ 5 fold; HEK-Blue TNFα reporter assay: potency in blocking TNFα functional activity, fold lower than TAVO167127 (recombinant human TNFα [2]): ~50 fold |
| binds | TAVO186187 after digestion by MMP2 (antibody, also called digested shielded antibody; digested TAVO186187; not shown: remnant of the protease-cleavable linker left after cleavage) heavy: EVQLVESGGGLVQPGGSLRLSCAASGFDFADYAMHWVRQAPGKGLEWVSAITWNGGHTDYADSVKGRFTISRDNSKNTLYLQMNSLRAEDTAVYYCAKVSYLSTASSLDYWGQGTLVTVSSASTKGPSVFPLAPSSKSTSGGTAALGCLVKDYFPEPVTVSWNSGALTSGVHTFPAVLQSSGLYSLSSVVTVPSSSLGTQTYICNVNHKPSNTKVDKKVEPKSCDKTHTCPPCPAPPAAGPSVFLFPPKPKDTLMISRTPEVTCVVVDVSHEDPEVKFNWYVDGVEVHNAKTKPREEQYNSTYRVVSVLTVLHQDWLNGKEYKCKVSNKALPAPIEKTISKAKGQPREPQVYTLPPSRDELTKNQVSLTCLVKGFYPSDIAVEWESNGQPENNYKTTPPVLDSDGSFLLYSKLTVDKSRWQQGNVFSCSVLHEALHSHYTQKSLSLSPGK light: not shown |  |
| binds | TAVO198199 after digestion by uPA (antibody, also called digested shielded antibody; digested TAVO198199; not shown: remnant of the protease-cleavable linker left after cleavage) heavy: EVQLVESGGGLVQPGGSLRLSCAASGFDFADYAMHWVRQAPGKGLEWVSAITWNGGHTDYADSVKGRFTISRDNSKNTLYLQMNSLRAEDTAVYYCAKVSYLSTASSLDYWGQGTLVTVSSASTKGPSVFPLAPSSKSTSGGTAALGCLVKDYFPEPVTVSWNSGALTSGVHTFPAVLQSSGLYSLSSVVTVPSSSLGTQTYICNVNHKPSNTKVDKKVEPKSCDKTHTCPPCPAPPAAGPSVFLFPPKPKDTLMISRTPEVTCVVVDVSHEDPEVKFNWYVDGVEVHNAKTKPREEQYNSTYRVVSVLTVLHQDWLNGKEYKCKVSNKALPAPIEKTISKAKGQPREPQVYTLPPSRDELTKNQVSLTCLVKGFYPSDIAVEWESNGQPENNYKTTPPVLDSDGSFLLYSKLTVDKSRWQQGNVFSCSVLHEALHSHYTQKSLSLSPGK light: not shown |  |
| binds | TAVO190191 after digestion by MMP2 (antibody, also called digested shielded antibody; digested TAVO190191; not shown: remnant of the protease-cleavable linker left after cleavage) heavy: EVQLVESGGGLVQPGGSLRLSCAASGFDFADYAMHWVRQAPGKGLEWVSAITWNGGHTDYADSVKGRFTISRDNSKNTLYLQMNSLRAEDTAVYYCAKVSYLSTASSLDYWGQGTLVTVSSASTKGPSVFPLAPSSKSTSGGTAALGCLVKDYFPEPVTVSWNSGALTSGVHTFPAVLQSSGLYSLSSVVTVPSSSLGTQTYICNVNHKPSNTKVDKKVEPKSCDKTHTCPPCPAPPAAGPSVFLFPPKPKDTLMISRTPEVTCVVVDVSHEDPEVKFNWYVDGVEVHNAKTKPREEQYNSTYRVVSVLTVLHQDWLNGKEYKCKVSNKALPAPIEKTISKAKGQPREPQVYTLPPSRDELTKNQVSLTCLVKGFYPSDIAVEWESNGQPENNYKTTPPVLDSDGSFLLYSKLTVDKSRWQQGNVFSCSVLHEALHSHYTQKSLSLSPGK light: not shown |  |
| binds | TAVO196197 after digestion by MMP3 (antibody, also called digested shielded antibody; digested TAVO196197; not shown: remnant of the protease-cleavable linker left after cleavage) heavy: EVQLVESGGGLVQPGGSLRLSCAASGFDFADYAMHWVRQAPGKGLEWVSAITWNGGHTDYADSVKGRFTISRDNSKNTLYLQMNSLRAEDTAVYYCAKVSYLSTASSLDYWGQGTLVTVSSASTKGPSVFPLAPSSKSTSGGTAALGCLVKDYFPEPVTVSWNSGALTSGVHTFPAVLQSSGLYSLSSVVTVPSSSLGTQTYICNVNHKPSNTKVDKKVEPKSCDKTHTCPPCPAPPAAGPSVFLFPPKPKDTLMISRTPEVTCVVVDVSHEDPEVKFNWYVDGVEVHNAKTKPREEQYNSTYRVVSVLTVLHQDWLNGKEYKCKVSNKALPAPIEKTISKAKGQPREPQVYTLPPSRDELTKNQVSLTCLVKGFYPSDIAVEWESNGQPENNYKTTPPVLDSDGSFLLYSKLTVDKSRWQQGNVFSCSVLHEALHSHYTQKSLSLSPGK light: not shown |  |
| binds | TAVO194195 after digestion by MMP2 (antibody, also called digested shielded antibody; digested TAVO194195; not shown: remnant of the protease-cleavable linker left after cleavage) heavy: EVQLVESGGGLVQPGGSLRLSCAASGFDFADYAMHWVRQAPGKGLEWVSAITWNGGHTDYADSVKGRFTISRDNSKNTLYLQMNSLRAEDTAVYYCAKVSYLSTASSLDYWGQGTLVTVSSASTKGPSVFPLAPSSKSTSGGTAALGCLVKDYFPEPVTVSWNSGALTSGVHTFPAVLQSSGLYSLSSVVTVPSSSLGTQTYICNVNHKPSNTKVDKKVEPKSCDKTHTCPPCPAPPAAGPSVFLFPPKPKDTLMISRTPEVTCVVVDVSHEDPEVKFNWYVDGVEVHNAKTKPREEQYNSTYRVVSVLTVLHQDWLNGKEYKCKVSNKALPAPIEKTISKAKGQPREPQVYTLPPSRDELTKNQVSLTCLVKGFYPSDIAVEWESNGQPENNYKTTPPVLDSDGSFLLYSKLTVDKSRWQQGNVFSCSVLHEALHSHYTQKSLSLSPGK light: not shown |  |
| binds | TAVO192193 after digestion by MMP2 (antibody, also called digested shielded antibody; digested TAVO192193; not shown: remnant of the protease-cleavable linker left after cleavage) heavy: EVQLVESGGGLVQPGGSLRLSCAASGFDFADYAMHWVRQAPGKGLEWVSAITWNGGHTDYADSVKGRFTISRDNSKNTLYLQMNSLRAEDTAVYYCAKVSYLSTASSLDYWGQGTLVTVSSASTKGPSVFPLAPSSKSTSGGTAALGCLVKDYFPEPVTVSWNSGALTSGVHTFPAVLQSSGLYSLSSVVTVPSSSLGTQTYICNVNHKPSNTKVDKKVEPKSCDKTHTCPPCPAPPAAGPSVFLFPPKPKDTLMISRTPEVTCVVVDVSHEDPEVKFNWYVDGVEVHNAKTKPREEQYNSTYRVVSVLTVLHQDWLNGKEYKCKVSNKALPAPIEKTISKAKGQPREPQVYTLPPSRDELTKNQVSLTCLVKGFYPSDIAVEWESNGQPENNYKTTPPVLDSDGSFLLYSKLTVDKSRWQQGNVFSCSVLHEALHSHYTQKSLSLSPGK light: not shown |  |
|  | TAVO271272 after digestion by MMP2 (antibody, the antibody part is that of TAVO167127 (EAC271/EAC272 are identical to EAC190/EAC191 but for the IGF2 mutations); not shown: remnant of the protease-cleavable linker left after cleavage) heavy: EVQLVESGGGLVQPGGSLRLSCAASGFDFADYAMHWVRQAPGKGLEWVSAITWNGGHTDYADSVKGRFTISRDNSKNTLYLQMNSLRAEDTAVYYCAKVSYLSTASSLDYWGQGTLVTVSSASTKGPSVFPLAPSSKSTSGGTAALGCLVKDYFPEPVTVSWNSGALTSGVHTFPAVLQSSGLYSLSSVVTVPSSSLGTQTYICNVNHKPSNTKVDKKVEPKSCDKTHTCPPCPAPPAAGPSVFLFPPKPKDTLMISRTPEVTCVVVDVSHEDPEVKFNWYVDGVEVHNAKTKPREEQYNSTYRVVSVLTVLHQDWLNGKEYKCKVSNKALPAPIEKTISKAKGQPREPQVYTLPPSRDELTKNQVSLTCLVKGFYPSDIAVEWESNGQPENNYKTTPPVLDSDGSFLLYSKLTVDKSRWQQGNVFSCSVLHEALHSHYTQKSLSLSPGK light: not shown | binding result (recombinant human TNFα [4]): binds |
| binds | TAVO188189 after digestion by MMP2 (antibody, also called digested shielded antibody; digested TAVO188189; not shown: remnant of the protease-cleavable linker left after cleavage) heavy: EVQLVESGGGLVQPGGSLRLSCAASGFDFADYAMHWVRQAPGKGLEWVSAITWNGGHTDYADSVKGRFTISRDNSKNTLYLQMNSLRAEDTAVYYCAKVSYLSTASSLDYWGQGTLVTVSSASTKGPSVFPLAPSSKSTSGGTAALGCLVKDYFPEPVTVSWNSGALTSGVHTFPAVLQSSGLYSLSSVVTVPSSSLGTQTYICNVNHKPSNTKVDKKVEPKSCDKTHTCPPCPAPPAAGPSVFLFPPKPKDTLMISRTPEVTCVVVDVSHEDPEVKFNWYVDGVEVHNAKTKPREEQYNSTYRVVSVLTVLHQDWLNGKEYKCKVSNKALPAPIEKTISKAKGQPREPQVYTLPPSRDELTKNQVSLTCLVKGFYPSDIAVEWESNGQPENNYKTTPPVLDSDGSFLLYSKLTVDKSRWQQGNVFSCSVLHEALHSHYTQKSLSLSPGK light: not shown |  |
